Data taken from PMC6769069.

Target: HybD endoprotease fused with peptide T18 of adenylate cyclase (pT18-hybD) (Escherichia coli) (UniProt P37182)
Assay: two-hybrid; bacterial two-hybrid (adenylate cyclase fragments T25 and T18) in E. coli BTH101; T25 at the N-terminus of the large subunit variants, T18 fused with HybD; anaerobic growth in TGYEP medium pH 6.5 at 30°C for 16 h; β-galactosidase activity according to Miller

Chain of UniProt P37182 (P37182 whole entry, the tested form may be a part): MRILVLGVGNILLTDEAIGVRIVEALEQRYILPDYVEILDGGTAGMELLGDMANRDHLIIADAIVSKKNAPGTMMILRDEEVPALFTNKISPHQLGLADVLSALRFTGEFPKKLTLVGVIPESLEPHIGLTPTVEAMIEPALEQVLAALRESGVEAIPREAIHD

β-galactosidase activity: 820 units
Substance: pro-HybC^§ fused to peptide T25 of adenylate cyclase (pT25-hybC^§) (from UniProt P0ACE0 2-552)
